Source: patent US6413935
Non-standard residues stand in square brackets, D forms with d. No end group written: not given here. Cha = N[C@@H](CC1CCCCC1)C(=O)O; 14 = not defined here

What was measured:
[1] = molecular target: T1, mouse class II IA^k, purified from CH12 cells (mouse), P01910; test: assay standard, average IC50
T1 chain 1: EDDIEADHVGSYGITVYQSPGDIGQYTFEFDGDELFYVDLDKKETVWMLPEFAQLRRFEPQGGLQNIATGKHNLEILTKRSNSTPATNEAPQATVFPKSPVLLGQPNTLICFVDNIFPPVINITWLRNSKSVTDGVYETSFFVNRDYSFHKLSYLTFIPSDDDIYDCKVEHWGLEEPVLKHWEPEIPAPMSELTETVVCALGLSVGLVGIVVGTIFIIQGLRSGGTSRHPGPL
T1 chain 2: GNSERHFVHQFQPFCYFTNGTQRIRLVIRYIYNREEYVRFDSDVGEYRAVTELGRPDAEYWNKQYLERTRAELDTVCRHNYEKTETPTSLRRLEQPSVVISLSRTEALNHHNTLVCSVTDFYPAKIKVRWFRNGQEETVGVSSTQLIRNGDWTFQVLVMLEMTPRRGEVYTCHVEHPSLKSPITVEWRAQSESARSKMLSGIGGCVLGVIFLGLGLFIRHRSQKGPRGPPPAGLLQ

[2] = molecular target: HLA-DR1 (DRB1*0101), purified from LG2 cells (human); test: 125I-peptide inhibition, purified class II
[3] = molecular target: T2, HLA-DR3 (DRB1*0301), purified from MAT cells (human); test: 125I-peptide inhibition, purified class II
T2 chain 1: not shown
T2 chain 2: not shown

[4] = molecular target: mouse class II IE^d, purified from A20 cells (mouse); test: 125I-peptide inhibition, purified class II
[5] = molecular target: mouse class II IA^s, purified from LS102.9 cells (mouse); test: 125I-peptide inhibition, purified class II
[6] = molecular target: mouse class II IE^k, purified from CH12 cells (mouse); test: 125I-peptide inhibition, purified class II
[7] = molecular target: T3, HLA-DR5 (DRB1*11011), purified from SWEIG cells (human); test: 125I-peptide inhibition, purified class II
T3 chain 1: not shown
T3 chain 2: not shown

[8] = molecular target: T4, HLA-DR7 (DRB1*0701), purified from PITOUT cells (human); test: 125I-peptide inhibition, purified class II
T4 chain 1: not shown
T4 chain 2: not shown

[9] = molecular target: T5, HLA-DRw53 (DRB4*0101), purified from L257.6 transfected fibroblasts (human); test: 125I-peptide inhibition, purified class II
T5 chain 1: not shown
T5 chain 2: not shown

[10] = molecular target: T6, HLA-DR2w2a (DRB5*0101), purified from L416.3 transfected fibroblasts (human); test: 125I-peptide inhibition, purified class II
T6 chain 1: not shown
T6 chain 2: not shown

[11] = molecular target: T1, mouse class II IA^k, purified from CH12 …; test: 125I-peptide inhibition, purified class II
[12] = molecular target: T7, mouse class II IA^d, purified from A20 cells (mouse), P04228; test: 125I-peptide inhibition, purified class II
T7 chain 1: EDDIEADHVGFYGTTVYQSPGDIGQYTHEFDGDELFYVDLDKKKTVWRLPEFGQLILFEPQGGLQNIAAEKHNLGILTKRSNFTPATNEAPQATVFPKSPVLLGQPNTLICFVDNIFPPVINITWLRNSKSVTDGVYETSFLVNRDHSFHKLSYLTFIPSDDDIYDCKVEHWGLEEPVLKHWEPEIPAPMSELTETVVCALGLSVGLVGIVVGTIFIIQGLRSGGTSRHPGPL
T7 chain 2: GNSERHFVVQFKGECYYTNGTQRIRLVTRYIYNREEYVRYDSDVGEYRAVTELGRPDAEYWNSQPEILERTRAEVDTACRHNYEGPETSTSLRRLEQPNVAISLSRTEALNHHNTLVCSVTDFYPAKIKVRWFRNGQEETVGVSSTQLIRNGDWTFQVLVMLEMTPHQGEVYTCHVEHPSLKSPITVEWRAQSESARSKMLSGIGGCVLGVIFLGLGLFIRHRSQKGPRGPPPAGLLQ

[13] = molecular target: T7, mouse class II IA^d, purified from A20 …; test: assay standard, average IC50
[14] = molecular target: T8, HLA-DR4w4 (DRB1*0401), purified from cell line PREISS (human); test: competition vs 125I-peptide, purified class II MHC
T8 chain 1: not shown
T8 chain 2: not shown

[15] = molecular target: T9, HLA-DR5 (DRB1*11011), purified from cell line SWEIG (human); test: competition vs 125I-peptide, purified class II MHC
T9 chain 1: not shown
T9 chain 2: not shown

[16] = molecular target: T10, HLA-DR3 (DRB1*0301), purified from cell line MAT (human); test: competition vs 125I-peptide, purified class II MHC
T10 chain 1: not shown
T10 chain 2: not shown

[17] = molecular target: T11, HLA-DR2w2a (DRB5*0101), purified from transfected fibroblasts L416.3 (human); test: competition vs 125I-peptide, purified class II MHC
T11 chain 1: not shown
T11 chain 2: not shown

[18] = molecular target: T12, HLA-DR52a (DRB3*0101), purified from MAT cells or TR81.19 transfected fibroblasts (human); test: 125I-peptide inhibition, purified class II
T12 chain 1: not shown
T12 chain 2: not shown

[19] = molecular target: T13, mouse class II IA^b, purified from DB27.4 cells (mouse), P14434; test: 125I-peptide inhibition, purified class II
T13 chain 1: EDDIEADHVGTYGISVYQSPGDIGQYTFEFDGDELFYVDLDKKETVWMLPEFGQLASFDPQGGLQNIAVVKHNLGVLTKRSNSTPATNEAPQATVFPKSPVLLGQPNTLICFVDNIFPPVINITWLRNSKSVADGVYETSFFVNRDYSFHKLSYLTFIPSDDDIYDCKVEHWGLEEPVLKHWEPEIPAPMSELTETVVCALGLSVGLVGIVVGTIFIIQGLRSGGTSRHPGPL
T13 chain 2: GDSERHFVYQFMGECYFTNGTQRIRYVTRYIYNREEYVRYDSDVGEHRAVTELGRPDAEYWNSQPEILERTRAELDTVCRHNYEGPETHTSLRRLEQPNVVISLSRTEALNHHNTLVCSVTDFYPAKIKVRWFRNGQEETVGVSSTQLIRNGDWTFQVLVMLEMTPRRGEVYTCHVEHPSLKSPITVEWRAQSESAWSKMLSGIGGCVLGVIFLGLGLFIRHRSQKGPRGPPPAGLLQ

[20] = molecular target: T14, HLA-DR2w2b (DRB1*1501), purified from 3107 cells (human); test: 125I-peptide inhibition, purified class II
T14 chain 1: not shown
T14 chain 2: not shown

[21] = molecular target: T15, HLA-DR4w4 (DRB1*0401), purified from PREISS cells (human); test: 125I-peptide inhibition, purified class II
T15 chain 1: not shown
T15 chain 2: not shown

[22] = molecular target: T16, HLA-DR7 (DRB1*0701), purified from cell line PITOUT (human); test: competition vs 125I-peptide, purified class II MHC
T16 chain 1: not shown
T16 chain 2: not shown

[23] = molecular target: mouse class II IE^d, purified from A20 cells (mouse); test: assay standard, average IC50

YNTDGSTDYGILQINSR (modifications not checked) [HEL 46-61 (assay standard, with N-terminal Y)]
IC50 [1]: 20 nM

[dA]A[Cha]IAAATLKAA[dA] [906.11]
IC50 [2]: 0.38 nM | IC50 [3]: 100 nM | IC50 [4]: 13 nM | IC50 [5]: 98 nM | IC50 [6]: 14 nM | IC50 [7]: 2.4 nM | IC50 [8]: 31 nM | IC50 [9]: 41 nM | IC50 [10]: 1.3 nM

ISQAVHAAHAEINE (modifications not checked) [Ova 323-336]
IC50 [11]: 1000 nM | IC50 [12]: 110 nM | IC50 [6]: 700 nM | IC50 [13]: 110 nM

[dA]K[14]VAAHTLKAA[dA]-NH2 (reading uncertain; also: printed as aK(14)VAAHTLKAAa-NH2) [peptide 955.15 (as printed), aK(14)…a-NH2]
IC50 [14]: 3.2 nM | IC50 [15]: 29.9 nM | IC50 [16]: 2500 nM | IC50 [17]: 5.4 nM

[dA]A[Cha]VAAATLKAA[dA] [906.09]
IC50 [2]: 0.61 nM | IC50 [18]: 588 nM | IC50 [3]: 280 nM | IC50 [12]: 38 nM | IC50 [4]: 31 nM | IC50 [6]: 11 nM | IC50 [19]: 31 nM | IC50 [8]: 76 nM | IC50 [9]: 93 nM | IC50 [20]: 14 nM | IC50 [21]: 2.6 nM | IC50 [10]: 2 nM

[dA]K[14]VKAWTLKAA[dA]-NH2 (reading uncertain; also: printed as aK(14)VKAWTLKAAa-NH2) [peptide 965.021, aK(14)…a-NH2]
IC50 [15]: 4.1 nM | IC50 [16]: 1100 nM | IC50 [22]: 89.3 nM

YLEDARRLKAIYEKKK (modifications not checked) [lambda rep 12-26]
IC50 [11]: > 10000 nM | IC50 [12]: 1100 nM | IC50 [4]: 170 nM | IC50 [19]: > 10000 nM | IC50 [23]: 170 nM
